Earlier results in PMC3901638.

Molecular target: PEDF-R (Homo sapiens) (UniProt Q96AD5)
Assay: Surface Plasmon Resonance

Chain of UniProt Q96AD5 (Q96AD5 whole entry): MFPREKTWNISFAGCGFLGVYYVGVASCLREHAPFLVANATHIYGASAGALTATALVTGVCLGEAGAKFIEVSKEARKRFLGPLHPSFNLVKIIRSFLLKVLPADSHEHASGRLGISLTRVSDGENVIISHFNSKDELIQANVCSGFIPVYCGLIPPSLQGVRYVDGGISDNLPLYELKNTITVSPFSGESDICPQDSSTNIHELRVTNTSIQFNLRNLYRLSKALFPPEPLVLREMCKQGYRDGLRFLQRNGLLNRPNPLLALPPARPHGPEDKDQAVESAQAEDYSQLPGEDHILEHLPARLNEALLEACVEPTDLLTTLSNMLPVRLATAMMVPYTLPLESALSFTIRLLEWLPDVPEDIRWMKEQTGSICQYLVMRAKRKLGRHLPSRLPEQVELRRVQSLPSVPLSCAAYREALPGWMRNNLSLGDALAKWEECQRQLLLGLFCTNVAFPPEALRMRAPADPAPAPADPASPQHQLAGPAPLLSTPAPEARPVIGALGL

For PEDF (from UniProt P36955), the Kd is listed as 3 nM.
